doi:10.1101/2021.06.03.446569 (bioRxiv, 2021)
Where two headings read alike, the source gives them in different places. Ends that are not written are not given here. * marks the point of attachment. FITC = O=C1OC2(c3ccc(O)cc3Oc3cc(O)ccc32)c2ccc(NC(=S)*)cc21

What was measured:
Test in all cases: fluorescence polarisation
[1] = biological target: Human P300 KIX domain (EP300 KIX domain) (human) (UniProt Q09472)
[2] = biological target: CBP KIX domain (CREBBP KIX domain) (human) (UniProt Q92793)
[3] = biological target: Human P300 KIX domain (EP300 KIX domain) (human) (UniProt Q09472); remark: listed apart in the source
[4] = biological target: CBP KIX domain (CREBBP KIX domain) (human) (UniProt Q92793); remark: listed apart in the source
[5] = biological target: Human P300 KIX domain (EP300 KIX domain) (human, UniProt Q09472 565-652)
Sequence of Human P300 KIX domain (EP300 KIX domain) (Q09472 565-652): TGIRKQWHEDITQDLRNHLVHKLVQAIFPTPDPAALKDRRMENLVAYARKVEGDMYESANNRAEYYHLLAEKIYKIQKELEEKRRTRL

[6] = biological target: CBP KIX domain (CREBBP KIX domain) (human, UniProt Q92793 585-672)
Sequence of CBP KIX domain (CREBBP KIX domain) (Q92793 585-672): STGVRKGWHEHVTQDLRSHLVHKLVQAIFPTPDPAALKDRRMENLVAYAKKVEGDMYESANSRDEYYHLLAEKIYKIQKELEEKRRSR

Sequence of CBP KIX domain (CREBBP KIX domain) (human) (Q92793 585-672): as above
Sequence of Human P300 KIX domain (EP300 KIX domain) (human) (Q09472 565-652): as the sequence (Q09472 565-652) above

| Molecule | IC50 [1] [µM] | IC50 [2] [µM] | IC50 [3] [µM] | IC50 [4] [µM] | Kd [5] [µM] | Kd [6] [µM] |
| --- | --- | --- | --- | --- | --- | --- |
| MLL28MYB30 (M/M) fusion peptide, purified | 8.5 | 22 | 8.3 | 23 | – | – |
| {FITC}-KEKRIKELELLLMSTENELKGQQAL [FITC-labelled MYB peptide (MYB25)] | – | – | – | – | 3.8 ± 0.2 | – |
| SDDGNILPSDIMDFVLKNTPSMQAL (also: rhodamine label, position not given here) [Rhodamine-labelled MLL peptide (MLL25)] | – | – | – | – | 40 ± 14 | 94 ± 11 |
